The text below walks through data of the supplement of paper PMC7877785.

± gives the uncertainty stated by the source.

This data set can be described thus: self-splicing fitness, log relative to wild type (ln ratio); higher = more splicing; Tetrahymena group I intron in knt gene, E. coli kanamycin selection, DiMSum; sequences stand for … in CUCUCU…GGAGGGAAAAGUUAUCAGGCAUGCACCUGGUAGCUAGUCUUUAAACCAAUAGAUUGCAUCGGUUUAAAAGGCAAGACCGUCAAAUUGCGGGAAAGGGGUCAACAGCCGUUCAGUACCAAGUCUCAGGGGAAACUUUGAGAUGGCCUUGCAAAGGGUAUGGUAAUAAGCUGACGGACAUGGUCCUAACCACGCAGCCAAGUCCUAAGUCAACAGAUCUUCUGUUGAUAUGGAUGCAGUUCACAGACUAAAUGUCGGUCGGGGAAGAUGUAUUCUUCUCAUAAGAUAUAGUCGGACCUCUCCUUAAUGGGAGCUAGCGGAUGAAGUGAUGCAACACUGGAGCCGCUGGGAACUAAUUUGUAUGCGAAAGUAUAUUGAUUAGUUUUGGAGUACUCGUGGUCG
In a few lines: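 Pooled colonies went to amplicon sequencing on an Illumina HiSeq 2500 after six replicate transformations. The plates were LB agar with 100 μg/mL carbenicillin, 50 μM IPTG and 0.2% rhamnose, with or without 25 μg/mL kanamycin, incubated overnight at 37°C or 30°C. The E. coli BL21(DE3) library had all eight P1ex-region intron nucleotides randomised, the intron placed in the knt kanamycin-resistance gene on pET-22b(+). DiMSum fitness is the error-weighted combination of replicate fold changes, kanamycin against none, normalised to wild type.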

On to UGACAGCAAUAUUACGUCAG, for which the “self-splicing fitness (ln)” value is -2.12 ± 0.096 (30 °C) and -1.75 ± 0.11 (37 °C).
UCCCAGCAAUAUUACGGACC: the “self-splicing fitness (ln)” value was -3.42 ± 0.27 (30 °C) and 0.0123 ± 0.17 (37 °C).
Consider AAUCAGCAAUAUUACGUACC, for which the “self-splicing fitness (ln)” value (30 °C) is -0.557 ± 0.16 and the “self-splicing fitness (ln)” value (37 °C) is -0.29 ± 0.18.
Turning to AAACAGCAAUAUUACGCGCA, the “self-splicing fitness (ln)” value reads like this: (30 °C) -0.282 ± 0.081; (37 °C) -0.19 ± 0.087.
Turning to CUUCAGCAAUAUUACGUGUC, the “self-splicing fitness (ln)” value was -3.03 ± 0.13 (30 °C) and -2.3 ± 0.12 (37 °C).
On to AGGGAGCAAUAUUACGGCGU, for which the “self-splicing fitness (ln)” value runs as follows: (30 °C) -2.04 ± 0.12; (37 °C) -1.05 ± 0.11.
The like results for GAUCAGCAAUAUUACGCCGC were, in that order, -2.29 ± 0.44 and -1.19 ± 0.28.
As to CAAGAGCAAUAUUACGGGCA, the “self-splicing fitness (ln)” value reads like this: (30 °C) -2.96 ± 0.24; (37 °C) -1.79 ± 0.23.
As to UCAAAGCAAUAUUACGCCUG, the “self-splicing fitness (ln)” value (30 °C) was -0.562 ± 0.066 and the “self-splicing fitness (ln)” value (37 °C) was -0.293 ± 0.091.
Taken in the same sequence, the figures for GUGCAGCAAUAUUACGUCUC were -0.469 ± 0.084 and 0.48 ± 0.11.
For the sequence AAUCAGCAAUAUUACGACGU, the “self-splicing fitness (ln)” value runs as follows: (30 °C) 0.0618 ± 0.056; (37 °C) 0.666 ± 0.07.
On to AAUAAGCAAUAUUACGAAAU, for which the “self-splicing fitness (ln)” value (30 °C) was -2.34 ± 0.14 and the “self-splicing fitness (ln)” value (37 °C) is -1.4 ± 0.15.
The like results for CACGAGCAAUAUUACGUCUU were, in that order, -2.89 ± 0.22 and -2.82 ± 0.24.
The like results for GCGAAGCAAUAUUACGACGU were, in that order, -2.69 ± 0.21 and -2.02 ± 0.2.
Taken in the same sequence, the figures for GCUGAGCAAUAUUACGGCUG were -1.57 ± 0.26 and -1.96 ± 0.44.
In the case of ACUAAGCAAUAUUACGGGUC, the “self-splicing fitness (ln)” value runs as follows: (30 °C) -3.49 ± 0.34; (37 °C) -0.75 ± 0.23.
With UCGGAGCAAUAUUACGUGUC, the “self-splicing fitness (ln)” value (37 °C) was -2.26 ± 0.29.
In the case of UAGCAGCAAUAUUACGGUGG, the “self-splicing fitness (ln)” value reads like this: (30 °C) -1.85 ± 0.089; (37 °C) -1.12 ± 0.1.
Taken in the same sequence, the figures for UCCUAGCAAUAUUACGCGGU were -2.34 ± 0.17 and -1.63 ± 0.18.
For the sequence UCCCAGCAAUAUUACGAUUU, the “self-splicing fitness (ln)” value runs as follows: (30 °C) -3.49 ± 0.11; (37 °C) -1.52 ± 0.097.
Taken in the same sequence, the figures for CCCCAGCAAUAUUACGUGCG were -3.1 ± 0.099 and -2.58 ± 0.14.
Taken in the same sequence, the figures for UGGUAGCAAUAUUACGUGGG were -3.64 ± 0.3 and -2.14 ± 0.19.
The like results for GCCAAGCAAUAUUACGUCAG were, in that order, -3.6 ± 0.23 and -2.73 ± 0.28.
In the case of CAAAAGCAAUAUUACGUAAU, the “self-splicing fitness (ln)” value (30 °C) is -3.57 ± 0.15 and the “self-splicing fitness (ln)” value (37 °C) was -3.04 ± 0.18.
With UCCCAGCAAUAUUACGUAAA, the “self-splicing fitness (ln)” value by setting is: (30 °C) -0.605 ± 0.065; (37 °C) 0.00983 ± 0.085.
In the case of CUUUAGCAAUAUUACGUUUA, the “self-splicing fitness (ln)” value (30 °C) is -3.03 ± 0.24 and the “self-splicing fitness (ln)” value (37 °C) was -1.64 ± 0.17.
Taken in the same sequence, the figures for UCCUAGCAAUAUUACGGGUA were -0.468 ± 0.088 and -0.134 ± 0.12.
As to UGUUAGCAAUAUUACGGUAA, the “self-splicing fitness (ln)” value by setting is: (30 °C) -1.05 ± 0.1; (37 °C) -0.0801 ± 0.097.
The like results for GGUAAGCAAUAUUACGUAUU were, in that order, -2.21 ± 0.12 and -1.22 ± 0.13.
With AGUGAGCAAUAUUACGUUUC, the “self-splicing fitness (ln)” value was -3.41 ± 0.23 (30 °C) and -3.56 ± 0.32 (37 °C).
Take CCGUAGCAAUAUUACGCUGA: the “self-splicing fitness (ln)” value runs as follows: (30 °C) -2.87 ± 0.31; (37 °C) -2.06 ± 0.28.
The like results for ACGGAGCAAUAUUACGUCCG were, in that order, -3.13 ± 0.37 and -2.36 ± 0.42.
Taken in the same sequence, the figures for CCUUAGCAAUAUUACGAGGC were -4.12 ± 0.29 and -1.6 ± 0.27.
As for UUUUAGCAAUAUUACGUUGA, the “self-splicing fitness (ln)” value (37 °C) was -1.8 ± 0.36.
With CAGCAGCAAUAUUACGCUAG, the “self-splicing fitness (ln)” value is, setting by setting: (30 °C) -2.8 ± 0.16; (37 °C) -2.1 ± 0.21.
Regarding CCCGAGCAAUAUUACGCAAG, the “self-splicing fitness (ln)” value (30 °C) was -2.73 ± 0.27.
AACCAGCAAUAUUACGGCAU: the “self-splicing fitness (ln)” value is, setting by setting: (30 °C) 0.127 ± 0.053; (37 °C) 0.376 ± 0.067.
With UCCAAGCAAUAUUACGAUAA, the “self-splicing fitness (ln)” value is, setting by setting: (30 °C) -2.01 ± 0.11; (37 °C) -0.704 ± 0.11.
For the sequence UAUCAGCAAUAUUACGGGCG, the “self-splicing fitness (ln)” value is 0.0109 ± 0.065 (30 °C) and 0.684 ± 0.088 (37 °C).
As to GCGCAGCAAUAUUACGUUGA, the “self-splicing fitness (ln)” value reads like this: (30 °C) -0.0364 ± 0.078; (37 °C) -0.504 ± 0.085.
Taken in the same sequence, the figures for GAGUAGCAAUAUUACGAGCU were -1.64 ± 0.073 and -0.0858 ± 0.11.
The like results for UCGCAGCAAUAUUACGAACC were, in that order, -3.4 ± 0.4 and -2.44 ± 0.41.
The like results for CUGGAGCAAUAUUACGACCA were, in that order, -1.68 ± 0.31 and -1.61 ± 0.38.
Take GUAAAGCAAUAUUACGUGAC: the “self-splicing fitness (ln)” value is, setting by setting: (30 °C) -2.09 ± 0.076; (37 °C) -0.885 ± 0.078.
As to UGAGAGCAAUAUUACGACGC, the “self-splicing fitness (ln)” value (30 °C) is -1.61 ± 0.35.
Turning to ACUUAGCAAUAUUACGAGCG, the “self-splicing fitness (ln)” value is, setting by setting: (30 °C) -1.14 ± 0.096; (37 °C) 0.122 ± 0.1.
As for UGGUAGCAAUAUUACGGGUU, the “self-splicing fitness (ln)” value by setting is: (30 °C) -4.12 ± 0.18; (37 °C) -3.49 ± 0.24.
Taken in the same sequence, the figures for AUUGAGCAAUAUUACGACAG were -3.48 ± 0.26 and -2.18 ± 0.21.
With GAUUAGCAAUAUUACGUAUC, for the setting “37 °C”, the “self-splicing fitness (ln)” value is -2.77 ± 0.36.
Consider CCUUAGCAAUAUUACGACGC, for which the “self-splicing fitness (ln)” value is -3.94 ± 0.33 (30 °C) and -2.51 ± 0.29 (37 °C).
As to GCGAAGCAAUAUUACGCAAU, the “self-splicing fitness (ln)” value runs as follows: (30 °C) -3.2 ± 0.2; (37 °C) -2.07 ± 0.19.
The like results for CCGUAGCAAUAUUACGGUGU were, in that order, -3.66 ± 0.17 and -1.85 ± 0.11.
As to UCUAAGCAAUAUUACGGCAU, the “self-splicing fitness (ln)” value is -3.46 ± 0.26 (30 °C) and -2.55 ± 0.21 (37 °C).
Taken in the same sequence, the figures for ACAAAGCAAUAUUACGAUGC were -1.61 ± 0.11 and -1.9 ± 0.15.
The like results for UAUUAGCAAUAUUACGCGUA were, in that order, -1.95 ± 0.16 and -0.462 ± 0.12.
As for AUCUAGCAAUAUUACGCACG, the “self-splicing fitness (ln)” value runs as follows: (30 °C) -1.37 ± 0.15; (37 °C) -0.353 ± 0.14.
The like results for UGCGAGCAAUAUUACGUGAU were, in that order, -2.47 ± 0.23 and -2.09 ± 0.4.
The like results for CCGCAGCAAUAUUACGAGUC were, in that order, -3.36 ± 0.26 and -3.29 ± 0.28.
Taken in the same sequence, the figures for GUUCAGCAAUAUUACGAUCC were -1.37 ± 0.12 and -1.05 ± 0.14.
On to GGACAGCAAUAUUACGUCGU, for which the “self-splicing fitness (ln)” value is, setting by setting: (30 °C) -1.45 ± 0.071; (37 °C) -0.405 ± 0.075.
Regarding GAUCAGCAAUAUUACGAGGG, the “self-splicing fitness (ln)” value is -1.99 ± 0.11 (30 °C) and -2.17 ± 0.18 (37 °C).
For AGAGAGCAAUAUUACGUUAA, the “self-splicing fitness (ln)” value was -3.32 ± 0.25 (30 °C) and -2.36 ± 0.24 (37 °C).
As for GUUAAGCAAUAUUACGUUAG, the “self-splicing fitness (ln)” value was -2.47 ± 0.13 (30 °C) and -1.32 ± 0.14 (37 °C).
Taken in the same sequence, the figures for UCACAGCAAUAUUACGUGCC were -1.42 ± 0.11 and 0.00553 ± 0.12.
The like results for UCGGAGCAAUAUUACGAGCA were, in that order, -2.39 ± 0.23 and -1.51 ± 0.27.
In the case of GGCGAGCAAUAUUACGCCGG, the “self-splicing fitness (ln)” value is -3.4 ± 0.35 (30 °C) and -0.739 ± 0.33 (37 °C).
On to UAGUAGCAAUAUUACGCUUC, for which the “self-splicing fitness (ln)” value (37 °C) was -1.91 ± 0.37.
In the case of ACAGAGCAAUAUUACGCGCG, the “self-splicing fitness (ln)” value by setting is: (30 °C) -2.69 ± 0.098; (37 °C) -1.47 ± 0.1.
Regarding AGUAAGCAAUAUUACGACCU, the “self-splicing fitness (ln)” value is, setting by setting: (30 °C) 0.329 ± 0.11; (37 °C) 0.451 ± 0.14.
For the sequence CGCGAGCAAUAUUACGGGGA, the “self-splicing fitness (ln)” value is -1.94 ± 0.28 (30 °C) and -2.41 ± 0.29 (37 °C).
Regarding GGACAGCAAUAUUACGGGUC, the “self-splicing fitness (ln)” value (30 °C) was -3.54 ± 0.23 and the “self-splicing fitness (ln)” value (37 °C) was -2.56 ± 0.26.
The like results for CUUAAGCAAUAUUACGCAAG were, in that order, -3.07 ± 0.41 and -2.58 ± 0.34.
Taken in the same sequence, the figures for CGCUAGCAAUAUUACGAUUG were -1.18 ± 0.1 and 0.0898 ± 0.13.
As to AUUAAGCAAUAUUACGCCCC, the “self-splicing fitness (ln)” value was -1.21 ± 0.31 (30 °C) and 0.0189 ± 0.48 (37 °C).
For ACAAAGCAAUAUUACGAGGG, the “self-splicing fitness (ln)” value runs as follows: (30 °C) -3.39 ± 0.11; (37 °C) -2.14 ± 0.11.
With AGACAGCAAUAUUACGGUAA, the “self-splicing fitness (ln)” value is -2.04 ± 0.11 (30 °C) and -1.37 ± 0.085 (37 °C).
On to AAAGAGCAAUAUUACGUUAU, for which the “self-splicing fitness (ln)” value was -3.71 ± 0.25 (30 °C) and -2.49 ± 0.23 (37 °C).
